Data set [1] deals with the molecule itself. Briefly: AUC; sedimentation equilibrium, starting concentrations 5, 10 and 20 µM, unlabelled peptide, no DMSO; 20 °C, sodium phosphate pH 6.8 with NaCl; fitted to a single ideal species (N) and, for the WT, to a dimer-tetramer model (apparent KD: tetramer to dimers).
Data set [2] deals with the molecule itself. Briefly: AUC; sedimentation velocity, 75 µM peptide, c(s) distribution; 20 °C, 25 mM sodium phosphate pH 6.8, ionic strength 154 mM (NaCl).
Data set [3] concerns the molecule itself. Kind of data set: AUC; sedimentation velocity, 10 µM peptide, c(s) distribution; 20 °C, 25 mM sodium phosphate pH 6.8, ionic strength 154 mM (NaCl).
Data set [4] concerns the target T1, STIL CCD peptide with a different fluorophore (fluorescence polarization) (a fluorophore other than the coumarin, not named, position not stated; C-terminal amide).
T1 construct: STIL coiled-coil domain, residues 718-749; also called same STIL CCD peptide and different fluorophore; source: synthetic peptide
T1 peptide: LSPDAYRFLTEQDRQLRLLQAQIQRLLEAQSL
Kind of data set: fluorescence polarisation; same STIL CCD peptide with a different fluorophore; Hill fit; dimer to monomers. To be noted: both partners purified.

Data set [5] concerns the molecule itself. Kind of data set: AUC; sedimentation velocity, 12.5 µM peptide, c(s) distribution; 20 °C, 25 mM sodium phosphate pH 6.8, ionic strength 154 mM (NaCl).
Data set [6] deals with the molecule itself. Kind of data set: AUC; sedimentation equilibrium, starting concentrations 5, 10 and 20 µM, unlabelled peptide, no DMSO; 20 °C, sodium phosphate pH 6.8 with NaCl; fitted to a single ideal species (N) and, for the WT, to a dimer-tetramer model (apparent KD: tetramer to dimers). The source holds these as a separate data set.
Data set [7] concerns the molecule itself. Kind of data set: AUC; sedimentation velocity, 500 µM peptide, c(s) distribution; 20 °C, 25 mM sodium phosphate pH 6.8, ionic strength 154 mM (NaCl).
For data set [8], the target named is T2, WT STIL CCD peptide labelled with 7-(Diethylamino)coumarin-3-carboxylic acid (7-(Diethylamino)coumarin-3-carboxylic acid on the N-terminus; C-terminal amide).
T2 construct: STIL coiled-coil domain, residues 718-749; also called labeled-WT CCD; fluorophore-labelled peptide; source: synthetic peptide (Fmoc-SPPS, fluorophore coupled on the resin, RP-HPLC purified)
T2 peptide: T1 peptide
Briefly: other fluorescence titration; fluorescence read on a Monolith NT.115 (micro-scale thermophoresis instrument); 5 µM coumarin-labelled peptide with unlabelled peptide 9 nM to 300 µM; 25 mM sodium phosphate pH 6.8, ionic strength 154 mM (NaCl), 5% DMSO, room temperature (24 °C); Hill fit; apparent; taken by the paper as dimer to monomers. The note with it: both partners purified.

From article PMC10572602, “Molecular Mechanism of STIL Coiled-Coil Domain Oligomerization” (International Journal of Molecular Sciences, 2023) come the findings set out here.

No end group written: not given here.

B1: STIL CCD_(718–749) WT (peptide)
peptide: LSPDAYRFLTEQDRQLRLLQAQIQRLLEAQSL-NH2
notes: STIL (SCL/TAL1 Interrupting Locus) coiled-coil domain, residues 718-749; 32-residue peptide, unlabelled; also called WT STIL CCD peptide; WT CCD; source: synthetic peptide (Fmoc-SPPS on rink amide, RP-HPLC purified)
As to B1, the Kd in data set [1] amounted to 68 ± 2 µM; in data set [4], 8.5 ± 0.4 µM; in data set [8], 8 ± 2 µM. The stoichiometry N (commonly the number of molecules, sites or subunits per partner or assembly) is 3.27 × monomer mass in data set [2]; 1.7 in data set [3]; 2 × monomer mass in data set [5]; 2.9 ± 0.04 in data set [6]; 3.4 × monomer mass in data set [7].
